Laboratory results taken from patent publication US7339039B2, “Nucleic acids encoding receptor recognition factors, and methods of use thereof” (The Rockfeller University, priority 1992, dated 2008).

Test system: Stat84 and Stat91L homodimers
Assay: Dissociation-reassociation analysis (gel mobility shift with GAS probe)
Format: biochemical, human
Conditions: GST fusion protein 0.5 to 5 μM
Protocol: Gel Mobility Shift Assays. Gel mobility shift assays were carried out as described (34). An oligonucleotide corresponding to the GAS element from the human FcγRI receptor gene (Pearse et al. 1993) was synthesized and used for gel mobility shift assays. The oligonucleotide has the following sequence: 5′[…]3′ (SEQ. ID NO:17).
Dissociation-reassociation Analysis. Extracts were incubated with various concentrations of peptides or fusion proteins, and ^32P-labeled GAS oligonucleotide probe in gel shift buffer was then added to promote the formation of protein-DNA complex followed by mobility shift analysis.
Dimerization of Stat91 Involves Phosphoryrosyl Peptide and SH2 Interactions. Based on the results described above, we devised a dissociation-reassociation assay in the absence of guanidium hydrochloride to explore the possible nature of interactions involved in dimer formation (FIG. 20). When the short and the long forms of a homodimer are mixed with a dissociating agent (e.g., a peptide containing the putative dimerization domain), the subunits of the dimer should dissociate (in a concentration dependent fashion) due to the interaction of the agent with the dimerization domain(s) of the protein. […] At high concentration of the dissociating agent, subunits of the dimer may not be able to re-form and no DNA-protein complexes would be detected (FIG. 20).

Chain of Stat84 and Stat91L homodimers (P42224 2-712 limits assumed): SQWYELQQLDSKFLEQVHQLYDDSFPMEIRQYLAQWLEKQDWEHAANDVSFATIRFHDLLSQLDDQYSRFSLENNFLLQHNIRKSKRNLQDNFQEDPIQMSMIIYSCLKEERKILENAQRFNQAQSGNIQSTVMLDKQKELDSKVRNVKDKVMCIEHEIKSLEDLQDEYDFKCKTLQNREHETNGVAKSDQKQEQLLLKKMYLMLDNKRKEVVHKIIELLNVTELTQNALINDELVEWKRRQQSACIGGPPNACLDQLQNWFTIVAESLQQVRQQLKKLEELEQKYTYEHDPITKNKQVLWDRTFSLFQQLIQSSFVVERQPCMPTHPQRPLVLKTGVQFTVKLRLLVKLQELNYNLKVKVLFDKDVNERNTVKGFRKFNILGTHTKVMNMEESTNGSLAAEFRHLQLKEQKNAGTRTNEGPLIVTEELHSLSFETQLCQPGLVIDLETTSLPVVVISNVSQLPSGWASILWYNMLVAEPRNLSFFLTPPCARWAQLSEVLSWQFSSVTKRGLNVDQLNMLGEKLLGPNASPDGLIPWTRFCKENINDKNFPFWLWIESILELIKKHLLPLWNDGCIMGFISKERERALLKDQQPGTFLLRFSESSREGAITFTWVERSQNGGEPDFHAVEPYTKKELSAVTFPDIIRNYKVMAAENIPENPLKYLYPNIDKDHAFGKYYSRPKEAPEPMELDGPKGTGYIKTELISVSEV

B1: GST-91SH2: GST fusion protein encoding amino acids 573 to 672 of Stat91 (protein)
chain: WNDGCIMGFISKERERALLKDQQPGTFLLRFSESSREGAITFTWVERSQNGGEPDFHAVEPYTKKELSAVTFPDIIRNYKVMAAENIPENPLKYLYPNID
modifications: left off: a dimerising Fc or GST
notes: GST fusion protein encoding amino acids 573 to 672 of Stat91
  formation of heterodimer / exchange of subunits between Stat84 and Stat91L homodimers: promoted the formation of a heterodimer
